# Test results published in patent US20100015644A1.
# Target: FcγRIIIaECD176VHis batch 646-005-EP (CHO-K1SV derived) (human) (UniProt P08637)
# Test: ELISA; FcγRIIIa176V directly coated or captured by anti-polyhistidine mAb
# Chain of FcγRIIIaECD176VHis batch 646-005-EP (CHO-K1SV derived) (human) (P08637 other isoform, or with tags, fused parts or gaps limits assumed): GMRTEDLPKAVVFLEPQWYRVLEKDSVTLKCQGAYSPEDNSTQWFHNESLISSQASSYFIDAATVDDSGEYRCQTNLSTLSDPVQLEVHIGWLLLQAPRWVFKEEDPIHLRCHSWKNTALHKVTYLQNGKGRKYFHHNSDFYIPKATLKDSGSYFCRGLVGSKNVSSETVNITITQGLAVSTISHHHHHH
row,EC50 ratio of the two HuMax-EGFr batches,Substance
1,2,HuMax-EGFr (antibody)

# Target: FcγRIIIaECD176VHis (HEK-293F, prepared as in Example 4) (human) (UniProt P08637)
# Test: AlphaScreen bridging assay: His-tagged FcγRIIIa176V on Ni-acceptor beads and sCD4-biotine on SA-donor beads; signal needs binding to both
# Chain of FcγRIIIaECD176VHis (HEK-293F, prepared as in Example 4) (human) (P08637 other isoform, or with tags, fused parts or gaps limits assumed): as above
row,binding capacity (% of the reference batch) (% of reference batch MRS-CD4-001),Substance
1,88,zanolimumab batch BO118 (antibody)
2,81,zanolimumab batch MOCK-MRS-CD4 (sham-deglycosylated) (antibody)
3,75,zanolimumab mixed batch M90-MRS-CD4 (antibody)
4,53,zanolimumab mixed batch M50-MRS-CD4 (antibody)
5,89,zanolimumab batch BN078 (antibody)
6,84,zanolimumab batch MEV005 (antibody)

# Target: CD4 on CD4+ T cells (human) (UniProt P01730)
# Test: cell-based or functional assay
row,reduction of the level of CD4 expression after 18-24 h (flow cytometry with non-competing anti-CD4) [%],Substance
1,50 to 80,zanolimumab (batch not stated) (antibody)

# Target: Fc receptor on NK cells (effector cells of the ADCC assay) (human) (UniProt P08637)
# Test: cell-based or functional assay
# Chain of Fc receptor on NK cells (effector cells of the ADCC assay) (human) (P08637 17-254): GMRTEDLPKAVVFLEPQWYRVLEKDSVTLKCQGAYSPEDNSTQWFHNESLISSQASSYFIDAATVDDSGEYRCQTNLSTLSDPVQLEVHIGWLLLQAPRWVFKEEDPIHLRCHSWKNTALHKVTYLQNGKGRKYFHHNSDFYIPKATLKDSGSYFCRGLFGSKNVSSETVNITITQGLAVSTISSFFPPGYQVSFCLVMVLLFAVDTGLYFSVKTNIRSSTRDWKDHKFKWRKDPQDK
"Relative potency (ADCC), Exp 1 (relative to MRS-CD4-001)","Relative potency (ADCC), Exp 2 (relative to MRS-CD4-001)","Relative potency (ADCC), Exp (third) (relative to MRS-CD4-001)","Relative potency (ADCC), mean (relative to MRS-CD4-001)","Relative potency (ADCC), relative to batch GMP#3 (relative to GMP#3)",Substance
1.38,1.55,1.42,1.45,1.17,zanolimumab batch MOCK-GMP#3-CD4 (sham-de-glycosylated) (antibody)
0.98,1.3,1.45,1.24,1,zanolimumab batch GMP#3 (antibody)
1,1,1,1,,zanolimumab batch MRS-CD4-001 (antibody)
0.14,0.64,0.39,0.39,0.31,zanolimumab mixed batch M50-GMP#3-CD4 (antibody)

# Target: sCD4 (UniProt P01730)
# Test: ELISA, plate-bound sCD4 2.0 µg/ml; relative potency from EC50
"relative potency (sCD4 binding), Exp 1 (relative to MRS-CD4-001)","relative potency (sCD4 binding), Exp 2 (relative to MRS-CD4-001)","relative potency (sCD4 binding), mean (relative to MRS-CD4-001)",Substance
0.98,0.85,0.92,zanolimumab batch MOCK-GMP#3-CD4 (sham-de-glycosylated) (antibody)
0.91,0.92,0.92,zanolimumab batch GMP#3 (antibody)
0.96,1.01,0.99,zanolimumab batch UNG-GMP#3-CD4 (de-glycosylated) (antibody)
1,1,1,zanolimumab batch MRS-CD4-001 (antibody)
1.03,0.9,0.97,zanolimumab mixed batch M50-GMP#3-CD4 (antibody)

# Target: FcγRIIIaECD176VHis (HEK-293F, prepared as in Example 4) (human) (UniProt P08637)
# Test: ELISA, plate-bound FcγRIIIa176V; relative potency from EC50
"relative potency (FcγRIIIa176V binding), Exp 1 (relative to MRS-CD4-001)","relative potency (FcγRIIIa176V binding), Exp 2 (relative to MRS-CD4-001)","relative potency (FcγRIIIa176V binding), mean (relative to MRS-CD4-001)","relative potency (FcγRIIIa176V binding), related to parent batch GMP#3 (relative to GMP#3)",relative potency (relative to MRS-CD4-001),Substance
1.23,1.23,1.23,1.09,,zanolimumab batch MOCK-GMP#3-CD4 (sham-de-glycosylated) (antibody)
,,,,0.7,zanolimumab mixed batch M90-MRS-CD4 (antibody)
1.12,1.12,1.12,1,,zanolimumab batch GMP#3 (antibody)
1,1,1,,,zanolimumab batch MRS-CD4-001 (antibody)
0.5,0.6,0.55,0.49,,zanolimumab mixed batch M50-GMP#3-CD4 (antibody)
